From US10413607B2, “Antibody specifically binding to ErbB3 and use thereof” (ISU ABXIS CO., LTD., priority 2015, dated 2019) come the findings set out here.

The labels stand for the following.
B1: 442S9: modified anti-ErbB3 antibody from lead antibody 442P (CDR mutagenesis) (antibody, V domains shown)
VH: EVQLLESGGGLVQPGGSLRLSCAASGFTFSDYDMSWVRQAPGKGLEWVSSIYPDSGSTYYADSVQGRFTISRDNSKNTLYLQMNSLRAEDTAVYYCAKDRHMWPEGPFDYWGQGTLVTVSS
VL: QSVLTQPPSASGTPGQRVTISCSGSSSNIGSNSGSWYQQLPGTAPKLLIYADNHRPSGVPDRFSGSKSGTSASLAISGLRSEDEADYYCAAWDSSLSGYVFGGGTKLTVLG
modifications: Heavy chain variable region of antibody 442S9; Light chain variable region of antibody 442S9
B2: 472S3: modified anti-ErbB3 antibody from lead antibody 472P (CDR mutagenesis) (antibody, V domains shown)
VH: EVQLLESGGGLVQPGGSLRLSCAASGFTFSWYDMSWVRQAPGKGLEWVSGISYDGGNTYYADSVKGRFTISRDNSKNTLYLQMNSLRAEDTAVYYCARDPSWCLQDLCYYADGMDVWGQGTLVTVSS
VL: B1 VL with G34V, N53S, H54N, A90G, A91S, S94Y
modifications: Heavy chain variable region of antibody 472S3; Light chain variable region of antibody 472S3
B3: 472S1: modified anti-ErbB3 antibody from lead antibody 472P (CDR mutagenesis) (antibody, V domains shown)
VH: B2 VH with S35T
VL: B1 VL with G34V, N53S, H54N, A90G, A91S, S94Y
modifications: Heavy chain variable region of antibody 472S1; Light chain variable region of antibody 472S1
B4: 442M4: modified anti-ErbB3 antibody from lead antibody 442P (CDR mutagenesis) (antibody, V domains shown)
VH: B1 VH with S50T, Y52D, P53L, T58I, R100L, W103G
VL: B1 VL with G34V, A51S, A90V, A91G, S97Y, Y99H
modifications: Heavy chain variable region of antibody 442M4; Light chain variable region of antibody 442M4
B5: 472S4: modified anti-ErbB3 antibody from lead antibody 472P (CDR mutagenesis) (antibody, V domains shown)
VH: B2 VH with M34I, S35A
VL: B1 VL with G34V, N53S, H54N, A90G, A91S, S94Y
modifications: Heavy chain variable region of antibody 472S4; Light chain variable region of antibody 472S4
B6: 472M1: modified anti-ErbB3 antibody from lead antibody 472P (CDR mutagenesis) (antibody, V domains shown)
VH: B2 VH with M34L
VL: B1 VL with G34V, N53S, H54N, A90G, A91S, S94Y
modifications: Heavy chain variable region of antibody 472M1; Light chain variable region of antibody 472M1
B7: 472S2: modified anti-ErbB3 antibody from lead antibody 472P (CDR mutagenesis) (antibody, V domains shown)
VH: B2 VH with M34L, S35A
VL: B1 VL with G34V, N53S, H54N, A90G, A91S, S94Y
modifications: Heavy chain variable region of antibody 472S2; Light chain variable region of antibody 472S2
B8: 451M3: modified anti-ErbB3 antibody from lead antibody 451P (CDR mutagenesis) (antibody, V domains shown)
VH: EVQLLESGGGLVQPGGSLRLSCAASGFTFSHYDMSWVRQAPGKGLEWVSAIYYDSGSIYYADSAKGRFTISRDNSKNTLYLQMNSLRAEDTAVYYCAKDRLFASDSTFDYWGQGTLVTVSS
VL: B1 VL with S26P, S31N, G34V, S35T, A51Y, N53S, A90G, A91S, S94A, S97N
modifications: Heavy chain variable region of antibody 451M3; Light chain variable region of antibody 451M3
B9: 442M10: modified anti-ErbB3 antibody from lead antibody 442P (CDR mutagenesis) (antibody, V domains shown)
VH: B1 VH with Y59D, R100L
VL: B1 VL with G34V, H54F
modifications: Heavy chain variable region of antibody 442M10; Light chain variable region of antibody 442M10
B10: 442M8: modified anti-ErbB3 antibody from lead antibody 442P (CDR mutagenesis) (antibody, V domains shown)
VH: B1 VH with R100L, W103G
VL: B1 VL with G34V, A51S, A90H, S97Y, G98V, Y99D
modifications: Heavy chain variable region of antibody 442M8; Light chain variable region of antibody 442M8
B11: 442M6: modified anti-ErbB3 antibody from lead antibody 442P (CDR mutagenesis) (antibody, V domains shown)
VH: B1 VH with Y52E, Y59D
VL: B1 VL with H54W
modifications: Heavy chain variable region of antibody 442M6; Light chain variable region of antibody 442M6
B12: 442M5: modified anti-ErbB3 antibody from lead antibody 442P (CDR mutagenesis) (antibody, V domains shown)
VH: B1 VH with S50T, Y52D, P53L, T58I, R100L, W103G
VL: B1 VL with G34V, A51S, A90H, S97W, Y99D
modifications: Heavy chain variable region of antibody 442M5; Light chain variable region of antibody 442M5
B13: 442M11: modified anti-ErbB3 antibody from lead antibody 442P (CDR mutagenesis) (antibody, V domains shown)
VH: B1 VH with S50T, Y52E, S55Y, Y59L, R100L, W103G
VL: B1 VL with G34V, A51S, A90H, Y99D, V100F
modifications: Heavy chain variable region of antibody 442M11; Light chain variable region of antibody 442M11
B14: 442M3: modified anti-ErbB3 antibody from lead antibody 442P (CDR mutagenesis) (antibody, V domains shown)
VH: B1 VH
VL: B1 VL with H54W
modifications: Heavy chain variable region of antibody 442M3; Light chain variable region of antibody 442M3
B15: 451M2: modified anti-ErbB3 antibody from lead antibody 451P (CDR mutagenesis) (antibody, V domains shown)
VH: B8 VH with H31D
VL: B1 VL with S26P, S31N, G34V, S35T, A51Y, N53S, A90G, A91S, S94A, S97N
modifications: Heavy chain variable region of antibody 451M2; Light chain variable region of antibody 451M2
B16: 451M1: modified anti-ErbB3 antibody from lead antibody 451P (CDR mutagenesis) (antibody, V domains shown)
VH: B8 VH with H31D, A103M
VL: B1 VL with S26P, S31N, G34V, S35T, A51Y, N53S, A90G, A91S, S94A, S97N
modifications: Heavy chain variable region of antibody 451M1; Light chain variable region of antibody 451M1

Where a chain is given by its changes, count along the chain named.

The first assay deals with T1, recombinant human ErbB3 protein (Homo sapiens, UniProt P21860).
T1 construct: purchased R&D systems
As to the kind of experiment: Binding affinity of anti-ErbB3 antibody to human ErbB3 protein (Octet QK384). The following applies: immobilized human ErbB3; binding phase about 900 seconds. The protocol:
In particular, the binding affinities of the anti-ErbB3 antibodies to the recombinant human ErbB3 protein (R&D systems) and the antigen-antibody interactive dynamics were measured using an Octet® QK384 system (Pall Life Sciences). After activation of carboxyl groups in 20 mM of 1-ethyl-3-(3-dimethylaminopropyl)carbodiimide hydrochloride (EDC) and 40 mM of N-hydroxysulfosuccinimide (sulfo-NHS) solution on an AR2G sensor (ForteBio), 10 μg/mL of human ErbB3 protein solution diluted with 10 mM of sodium acetate (pH 4.0) (ForteBio) was added to immobilize human ErbB3 protein onto the AR2G sensor. The AR2G sensor to which the human ErbB3 protein was immobilized was treated with 1 M of ethanolamine (ForteBio) to inactivate the remaining unreacted carboxyl groups.
(In BLI a coated tip is dipped into the sample, and binding shifts an interference pattern.)
With B1, the “ka (association constant)” value amounted to 821000 M⁻¹ s⁻¹.

On to B2, for which the “ka (association constant)” value was found to be 522000 M⁻¹ s⁻¹.

B3: the “ka (association constant)” value was found to be 649000 M⁻¹ s⁻¹.

As to B4, the “ka (association constant)” value was found to be 573000 M⁻¹ s⁻¹.

B5: the “ka (association constant)” value is 1.15e+06 M⁻¹ s⁻¹.

For the molecule B6, the “ka (association constant)” value came to 1.39e+06 M⁻¹ s⁻¹.

Turning to B7, the “ka (association constant)” value was found to be 1.07e+06 M⁻¹ s⁻¹.

As to B8, the “ka (association constant)” value is 1.87e+06 M⁻¹ s⁻¹.

In the case of B9, the “ka (association constant)” value worked out at 471000 M⁻¹ s⁻¹.

Regarding B10, the “ka (association constant)” value came out at 870000 M⁻¹ s⁻¹.

Turning to B11, the “ka (association constant)” value was determined as 969000 M⁻¹ s⁻¹.

As for B12, the “ka (association constant)” value was 665000 M⁻¹ s⁻¹.

As for B13, the “ka (association constant)” value is 1.49e+06 M⁻¹ s⁻¹.

Turning to B14, the “ka (association constant)” value worked out at 771000 M⁻¹ s⁻¹.

For the molecule B15, the “ka (association constant)” value came out at 1.24e+06 M⁻¹ s⁻¹.

As to B16, the “ka (association constant)” value is 1.24e+06 M⁻¹ s⁻¹.

The same assay, now with this note: immobilized human ErbB3; dissociation phase about 1200 seconds.
Take B1: the “kd (dissociation constant)” value worked out at 5.87e-05 s⁻¹.

Regarding B2, the “kd (dissociation constant)” value stood at 1.43e-07 s⁻¹.

Turning to B3, the “kd (dissociation constant)” value was determined as 3.33e-07 s⁻¹.

As to B4, the “kd (dissociation constant)” value is less than 1e-07 s⁻¹.

Regarding B5, the “kd (dissociation constant)” value is 1.09e-05 s⁻¹.

Regarding B6, the “kd (dissociation constant)” value amounted to 1.74e-05 s⁻¹.

On to B7, for which the “kd (dissociation constant)” value was less than 1e-07 s⁻¹.

As to B8, the “kd (dissociation constant)” value is 2.3e-07 s⁻¹.

Regarding B9, the “kd (dissociation constant)” value was less than 1e-07 s⁻¹.

As for B10, the “kd (dissociation constant)” value was determined as 2.23e-06 s⁻¹.

In the case of B11, the “kd (dissociation constant)” value turned out to be 1.95e-05 s⁻¹.

Turning to B12, the “kd (dissociation constant)” value was less than 1e-07 s⁻¹.

For the molecule B13, the “kd (dissociation constant)” value came out at 8.09e-06 s⁻¹.

As for B14, the “kd (dissociation constant)” value worked out at 2.62e-06 s⁻¹.

Take B15: the “kd (dissociation constant)” value stood at 1.56e-05 s⁻¹.

In the case of B16, the “kd (dissociation constant)” value amounted to 3.08e-05 s⁻¹.
